From the supplement of paper PMC10567573
± gives the standard deviation.

Test: protein stability index of a GFP-peptide fusion (GPS, HEK-293T) (PSI 1-6); higher = more stable
[1] = treatment: DMSO, c terminus: a fixed tail appended
[2] = treatment: MLN4924 1 uM, 8 h, c terminus: a fixed tail appended
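Note: 24-mer peptide tiles fused after GFP, lentivirally expressed, FACS-sorted into six equal bins by GFP/DsRed ratio, decoded by Illumina sequencing, PSI is the read-weighted mean bin number.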

SLKAICTEIANCSLKVKFFDLERE [PLD5]
protein stability index [1]: 2.12 ± 0.17
protein stability index [2]: 2.26 ± 0.84

WRNLGVQQSQGWVHYMIHEPEPHI [CKS1B]
protein stability index [1]: 2.24 ± 0.23
protein stability index [2]: 2.28 ± 0.18

STVQILTEGFPPGGGNARATGMFL [ZFYVE21]
protein stability index [1]: 2.16 ± 0.19
protein stability index [2]: 2.27 ± 0.35

SGIGREGAKDSYDFFTEIKTITVK [ALDH8A1]
protein stability index [1]: 3.27 ± 0.37
protein stability index [2]: 3.28 ± 0.4

SRLVAGEYLSFFDFSGLTLDGALR [PSD2]
protein stability index [1]: 1.93 ± 0.094
protein stability index [2]: 2.3 ± 0.29

IGMHREMQVNPISKRMGPMTVVRM [RHOBTB1]
protein stability index [1]: 2.39 ± 0.44
protein stability index [2]: 2.39 ± 0.32

LLVLCEDHRGRMVKHQCCPGCGYF [EHMT1]
protein stability index [1]: 2.36 ± 0.087
protein stability index [2]: 2.27 ± 0.36

DSSNSMQTIQKTTTRRIVDGKVVS [KRT18]
protein stability index [1]: 3.61 ± 0.19
protein stability index [2]: 3.73 ± 0.31

MMLFNDGTFQVNFYHDHTKIIICS [PLK2]
protein stability index [1]: 2.79 ± 0.83
protein stability index [2]: 2.88 ± 0.86

IDICHDHFGWYLGWGDCVWLPYLY [DHCR7]
protein stability index [1]: 2.55 ± 0.12
protein stability index [2]: 3.3 ± 0.27

AGSSNLPAPERTMAGLSKEPNTLR [VENTX]
protein stability index [1]: 4.48 ± 0.45
protein stability index [2]: 4.71 ± 0.47

LVMEGTDDGRLLEYDTVTREVKVL [APMAP]
protein stability index [1]: 3.5 ± 0.21
protein stability index [2]: 3.58 ± 0.37

PTMPALFSDHTFRHYAYLRDSLSH [INTS4]
protein stability index [1]: 2.3 ± 0.14
protein stability index [2]: 2.31 ± 0.12

KCVTMSSAVVQLYAADRNCMWSKK [WASL]
protein stability index [1]: 2.87 ± 0.18
protein stability index [2]: 2.88 ± 0.29

SMTTPRCYVGATVLRGRLYAIAGY [KLHL12]
protein stability index [1]: 2.14 ± 0.36
protein stability index [2]: 2.51 ± 0.58

QSLPKASPVTTSPTAATTQNPVLS [LCOR]
protein stability index [1]: 4.92 ± 0.19
protein stability index [2]: 4.85 ± 0.21

ADRCSPKEDQAWDGASQDCPPLPA [FBXO34]
protein stability index [1]: 5.27 ± 0.18
protein stability index [2]: 4.99 ± 0.14

DLIGLPWVCFIYTIMSLASLLFVV [SLC2A12]
protein stability index [1]: 4.15 ± 0.79
protein stability index [2]: 3.95 ± 0.71

LVLRRQLKNKCCPPPCKFGEGKLS [C22orf31]
protein stability index [1]: 2.21 ± 0.31
protein stability index [2]: 2.52 ± 0.34

LKGTLVSTLKEVKPTVFIGVPQIW [ACSBG2]
protein stability index [1]: 2.65 ± 0.2
protein stability index [2]: 3.5 ± 0.61

SKSADNQEYFERHRWPPVWYLKEE [RHOBTB1]
protein stability index [1]: 3.4 ± 0.29
protein stability index [2]: 3.43 ± 0.34

LDDIIRHDFFLQGFTPDRLSSSCC [PLK2]
protein stability index [1]: 2.48 ± 0.043
protein stability index [2]: 2.64 ± 0.3

FESLPENASHKLEVRLVPVSFEDP [ATE1]
protein stability index [1]: 3.68 ± 0.13
protein stability index [2]: 3.68 ± 0.31

PRTRGSWSQPQPLKAPCLNGDTT [RASAL3]
protein stability index (treatment: DMSO, c terminus: native): 3.62 ± 0.36
protein stability index (treatment: MLN4924 1 uM, 8 h, c terminus: native): 3.5 ± 0.36

DGKRCRRKDVCKSTHHGCEHICVN [MATN2]
protein stability index [1]: 3.65 ± 0.3
protein stability index [2]: 3.92 ± 0.21

DALDKIRYESLTDPSKLDSGKELK [HSP90AB1]
protein stability index [1]: 5.06 ± 0.1
protein stability index [2]: 5 ± 0.16

ESLMALCTDFCLRNLDGTLGYLLD [ZER1]
protein stability index [1]: 2.71 ± 0.4
protein stability index [2]: 2.94 ± 0.39

RLPNRQLISCSEDGSVRIWELREK [WDR41]
protein stability index [1]: 3.23 ± 0.2
protein stability index [2]: 3.31 ± 0.42

SLVMGSQTESALSKKLRAILPKQS [LCOR]
protein stability index [1]: 2.71 ± 0.21
protein stability index [2]: 2.95 ± 0.37

KENSHQVKEELSQKFDTLYAILDE [TRIM63]
protein stability index [1]: 4.77 ± 0.27
protein stability index [2]: 4.57 ± 0.18

KAQALRDNSTMGYMMAKKHLEINP [HSP90AB1]
protein stability index [1]: 3.39 ± 0.14
protein stability index [2]: 3.5 ± 0.23

AVIQHRPSRQYATLDVYNPFETRE [SCAMP3]
protein stability index [1]: 3.42 ± 0.23
protein stability index [2]: 3.39 ± 0.27

PVTSIGIDNLGLKLEENLQETHSA [SLC35F2]
protein stability index [1]: 5.06 ± 0.19
protein stability index [2]: 5 ± 0.11

MHLNFMDEKDRIITAFYNEARARA [DNAJC4]
protein stability index [1]: 2.92 ± 0.35
protein stability index [2]: 2.98 ± 0.19

VFRWLAYSYASTHRLMTDARRRVC [CPXM2]
protein stability index [1]: 2.35 ± 0.32
protein stability index [2]: 2.54 ± 0.32

TYTYTSRPRALPCQRSRYRDSLTQ [RSPH3]
protein stability index [1]: 3.18 ± 0.23
protein stability index [2]: 3.18 ± 0.14
